Results reported in patent US6403765B1, “Truncated Apaf-1 and methods of use thereof” (Thomas Jefferson University, priority 1998, dated 2002).

T1: T7-tagged Apaf-530 (Homo sapiens, UniProt O14727)
T1 construct: expressed in transfected cells; host or cells: 293 cells
T1 sequence (O14727 1-530 isoform O14727-3): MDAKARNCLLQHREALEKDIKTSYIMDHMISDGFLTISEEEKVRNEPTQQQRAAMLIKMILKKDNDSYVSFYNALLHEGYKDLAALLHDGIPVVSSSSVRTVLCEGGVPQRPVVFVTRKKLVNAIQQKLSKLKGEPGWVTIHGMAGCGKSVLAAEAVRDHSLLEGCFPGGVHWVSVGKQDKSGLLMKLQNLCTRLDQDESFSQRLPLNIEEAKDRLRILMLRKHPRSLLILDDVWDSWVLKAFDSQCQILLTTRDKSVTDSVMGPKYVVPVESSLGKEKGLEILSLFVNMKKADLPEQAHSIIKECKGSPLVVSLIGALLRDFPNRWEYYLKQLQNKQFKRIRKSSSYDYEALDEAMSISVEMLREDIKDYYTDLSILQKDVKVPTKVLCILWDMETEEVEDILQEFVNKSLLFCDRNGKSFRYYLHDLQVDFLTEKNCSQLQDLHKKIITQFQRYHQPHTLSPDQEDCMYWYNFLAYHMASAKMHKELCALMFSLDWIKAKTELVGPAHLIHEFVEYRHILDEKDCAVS

T2: procaspase-9 (Homo sapiens, UniProt P55211)
T2 construct: schematic representation of full length procaspase-9; made in house; host or cells: coupled in vitro transcription/translation in rabbit reticulocyte lysate (TNT Kit, Promega)
T2 sequence (P55211 1-416): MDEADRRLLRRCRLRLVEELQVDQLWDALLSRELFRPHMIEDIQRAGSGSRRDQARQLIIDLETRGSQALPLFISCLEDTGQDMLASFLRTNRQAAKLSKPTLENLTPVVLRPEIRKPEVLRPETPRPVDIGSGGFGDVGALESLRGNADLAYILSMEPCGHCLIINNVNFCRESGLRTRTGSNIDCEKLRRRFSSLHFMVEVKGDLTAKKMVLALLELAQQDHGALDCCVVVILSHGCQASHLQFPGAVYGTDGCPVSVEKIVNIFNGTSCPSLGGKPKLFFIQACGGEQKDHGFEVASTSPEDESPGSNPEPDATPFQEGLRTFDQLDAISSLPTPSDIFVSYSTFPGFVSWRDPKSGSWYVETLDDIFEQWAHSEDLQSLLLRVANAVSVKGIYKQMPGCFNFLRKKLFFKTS


Assays:
MCF-7 cells = assay: Inhibition of apoptosis in transfected MCF-7 cells; assay type: cell-based; conditions: apoptosis induced by UV, Fas agonist antibody, TRAIL, or overexpression of DR4 and DR5, FIG. 17
Text: To express the caspases or truncated Apaf-1 in mammalian cells and assay their apoptotic activity, they were amplified with the T7-tag primer and reverse primers using the pET28a constructs as templates, and subcloned into the mammalian double expression vector pRSC-LacZ (MacFarlane et al., J. Biol. Chem., 272:25417-25420, 1997; Tsang et al., Bio/Technology, 22:68, 1997) or as previously described (Li et al., Cell 91:479-489, 1997; Srinivasula et al., J. Biol. Chem., 272:18452-18545, 1997). This vector allows the expression of lacZ under the Rous Sarcoma virus promoter, and the test cDNA under the CMV promoter. To assay for apoptosis, MCF-7 or 293 cells were transfected, using the method commercially available as the Lipofect Amine method (Life Technologies, Inc.), with the pRSC-LacZ constructs in the presence or absence of different apoptosis-inhibitors. 30 h after transfection cells were stained with β-galactosidase and examined for morphological signs of apoptosis. The percentage of round blue apoptotic cells (mean±SD) were determined by phase contrast microscopy and then represented as a function of total blue cells under each condition (n≧3).

T7-tagged Bcl-xL = target: T3, T7-tagged Bcl-xL (Homo sapiens, UniProt Q07817); assay: Co-immunoprecipitation of Flag-tagged Apaf-1 variants or procaspase-9 with T7-tagged Bcl-xL in 293 cells; assay type: binding; conditions: anti-Flag immunoprecipitation, anti-T7 blot, 36 hours, FIG. 16
T3 construct: expressed in transfected cells; host or cells: 293 cells
Protocol: In vivo interaction experiments between Apaf-1 variants and Bcl-xL were performed. To analyze the ability of Apaf-1 to interact with Bcl-xL, 293 cells were co-transfected with constructs encoding T7-tagged Bcl-xL and constructs encoding Flag-tagged Apaf-97 (FIG. 16, lane 1), Apaf-1 (FIG. 16, lane 2), Apaf-530 (FIG. 16, lane 3) Apaf-530ΔCARD (FIG. 16, lane 4), or procaspase-9 C287A (FIG. 16, lane 5). After 36 hours, extracts were prepared and immunoprecipitated with a monoclonal antibody to the Flag epitope. The immunoprecipitates (FIG. 16, upper panel) were analyzed by SDS-PAGE and immunoblotted with a horseradish peroxidase-conjugated T7 antibody. The corresponding cellular extracts were also analyzed by SDS-PAGE and immunoblotted with a horseradish peroxides-conjugated T7 antibody (FIG. 16, middle panel) or an anti-Flag antibody (FIG. 16, lower panel).

T7-tagged Apaf-530 = target: T1, T7-tagged Apaf-530; assay: Co-immunoprecipitation of Flag-tagged Apaf-1 variants with T7-tagged Apaf-530 in 293 cells; assay type: binding; conditions: anti-Flag immunoprecipitation, anti-T7 blot, 36 hours, FIG. 11
Protocol: The ability of APAF-530 to oligomerize pro-caspase-9 was tested. Co-transfection experiments in 293 cells were performed with T7-tagged Apaf-530 and different Flag-tagged Apaf-1 variants, and cell lysates were prepared and immunoprecipitated with an anti-Flag antibody. The immunoprecipitates were analyzed by Western blotting with an anti-T7 antibody.
In FIG. 11, 293 cells were co-transfected with constructs encoding T7-tagged Apaf-530 and an empty vector (lane 1) or constructs encoding Flag-tagged Apaf-1 (lane 2), Flag-tagged Apaf-530 (lane 3), Flag-tagged Apaf-530ΔCARD (lane 4) or Flag-tagged Apaf-97 (lane 5). After 36 hours, extracts were prepared and immunoprecipitated with a monoclonal antibody to the Flag epitope. The immunoprecipitates (upper panel) were analyzed by SDS-PAGE and immunoblotted with a horseradish peroxides-conjugated T7 antibody. The corresponding cellular extracts were also analyzed by SDS-PAGE and immunoblotted with a horseradish peroxides-conjugated T7 antibody (middle panel) or an anti-Flag antibody (lower panel).

procaspase-9 = target: T2, procaspase-9; assay: In vitro caspase 9 activation assay: recombinant Apaf-1 variants incubated with in vitro translated procaspase-9; assay type: biochemical; conditions: bacterial lysates with truncated Apaf-1 variants, FIG. 2B
Protocol: SDS sample buffer was then added to each sample, boiled and subjected to SDS-PAGE analysis followed by autoradiography. In FIG. 2A procaspase-9 was in vitro translated in the presence of ^35S-methionine. Following translation procaspase-9 was desalted by gel filtration through a biospin column (BioRad) to remove unincorporated methionine and free nucleotides. Desalted procaspase-9 was then incubated with 200 ng Ni^2+-affinity purified bacterially expressed recombinant Apaf-530 (WT or K149R mutant) in the presence or absence of cytochrome c or dATP or both for 2 h at 30° C. A mock sample containing Ni^2+-affinity purified material from bacteria transformed with an empty vector was used as a negative control. Following incubation the products were analyzed by SDS-PAGE and autoradiography. In FIG. 2B^35S-labeled procaspase-9 (as described above) was incubated with bacterial lysates containing truncated Apaf-1 variants as indicated and then analyzed as above (2B upper panel). The bacterial lysates were analyzed by SDS-PAGE and immunoblotted with an Apaf-1 antibody which recognizes the N-terminus of Apaf-1 (lanes 2-6) and an anti T7-tag antibody (lanes 7-8) to confirm expression and equivalent concentration of the different Apaf-1 variants (2B lowerpanel). The molecular mass markers are indicated to the right of the lower panel.
^35S-labeled caspases were obtained by in vitro translation in the presence of ^35S-methionine using a coupled transcription/translation system in rabbit reticulocyte lysate using TNT Kit (Promega) according to the manufacturer's recommendations.
To determine the role of the WD-40 repeat in the mechanism of Apaf-1-induced processing of procaspase-9, truncated Apaf-1 (Apaf-530) lacking its WD-40 repeats (FIG. 1) was expressed and purified. To reconstitute a recombinant caspase-9 activation system, the truncated Apaf-530 was incubated with in vitro translated recombinant procaspase-9 in the presence or absence of cytochrome c and dATP. […] It was previously shown that mutation of CED-4 K165R which is required for nucleotide binding destroys its activity (Chinnaiyan et al., Nature 388:728-729, 1997; Jarnes et al., Curr. Biol. 7:246-252, 1997; Seshagiri and Miller, Curr. Biol. 7:455-460, 1997). […] Therefore, either binding of Apaf-1 to cytochrome c and dATP or deletion of the repeats could induce a conformational change enabling Apaf-1 to bind and process procaspase-9.
In FIG. 3, ^35S-labeled WT or mutant D330A, D315A or C287A mutants of procaspase-9 or prodomainless procaspase-9 (Δpro, residues 134-416) were incubated with buffer (lanes 1, 4, 7, 10, 13), purified Apaf-530 (lanes 2, 5, 8, 11, 14) or mock purified material (lanes, 3, 6, 9, 12, 15) and then analyzed by SDS-PAGE and autoradiography.

T3 sequence (Q07817 whole entry): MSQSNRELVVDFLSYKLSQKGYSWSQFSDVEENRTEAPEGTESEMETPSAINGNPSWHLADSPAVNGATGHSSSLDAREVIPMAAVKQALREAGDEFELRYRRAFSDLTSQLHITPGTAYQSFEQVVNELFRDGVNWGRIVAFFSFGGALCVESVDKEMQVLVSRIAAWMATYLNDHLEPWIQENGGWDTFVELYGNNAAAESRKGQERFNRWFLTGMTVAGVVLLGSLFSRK

| Molecule | inhibition of apoptosis (MCF-7 cells) | co-immunoprecipitation with Bcl-xL (T7-tagged Bcl-xL) | co-immunoprecipitation with T7-Apaf-530 (T7-tagged Apaf-530) | activity of the Apaf-1 variant in promoting activation of procaspase-9 (procaspase-9) |
| --- | --- | --- | --- | --- |
| Bcl-xL: Bcl-xL expressed from a transfected construct as apoptosis inhibitor comparator [reference compound] | inhibition |  |  |  |
| Apaf-1: full length Apaf-1, 1194 amino acids (protein, left off: small tags and cut ends, full length Apaf-1, 1194 amino acids) MDAKARNCLLQHREALEKDIKTSYIMDHMISDGFLTISEEEKVRNEPTQQQRAAMLIKMILKKDNDSYVSFYNALLHEGYKDLAALLHDGIPVVSSSSVRTVLCEGGVPQRPVVFVTRKKLVNAIQQKLSKLKGEPGWVTIHGMAGCGKSVLAAEAVRDHSLLEGCFPGGVHWVSVGKQDKSGLLMKLQNLCTRLDQDESFSQRLPLNIEEAKDRLRILMLRKHPRSLLILDDVWDSWVLKAFDSQCQILLTTRDKSVTDSVMGPKYVVPVESSLGKEKGLEILSLFVNMKKADLPEQAHSIIKECKGSPLVVSLIGALLRDFPNRWEYYLKQLQNKQFKRIRKSSSYDYEALDEAMSISVEMLREDIKDYYTDLSILQKDVKVPTKVLCILWDMETEEVEDILQEFVNKSLLFCDRNGKSFRYYLHDLQVDFLTEKNCSQLQDLHKKIITQFQRYHQPHTLSPDQEDCMYWYNFLAYHMASAKMHKELCALMFSLDWIKAKTELVGPAHLIHEFVEYRHILDEKDCAVSENFQEFLSLNGHLLGRQPFPNIVQLGLCEPETSEVYQQAKLQAKQEVDNGMLYLEWINKKNITNLSRLVVRPHTDAVYHACFSEDGQRIASCGADKTLQVFKAETGEKLLEIKAHEDEVLCCAFSTDDRFIATCSVDKKVKIWNSMTGELVHTYDEHSEQVNCCHFTNSSHHLLLATGSSDCFLKLWDLNQKECRNTMFGHTNSVNHCRFSPDDKLLASCSADGTLKLWDATSANERKSINVKQFFLNLEDPQEDMEVIVKCCSWSADGARIMVAAKNKIFLWNTDSRSKVADCRGHLSWVHGVMFSPDGSSFLTSSDDQTIRLWETKKVCKNSAVMLKQEVDVVFQENEVMVLAVDHIRRLQLINGRTGQIDYLTEAQVSCCCLSPHLQYIAFGDENGAIEILELVNNRIFQSRFQHKKTVWHIQFTADEKTLISSSDDAEIQVWNWQLDKCIFLRGHQETVKDFRLLKNSRLLSWSFDGTVKVWNIITGNKEKDFVCHQGTVLSCDISHDATKFSSTSADKTAKIWSFDLLLPLHELRGHNGCVRCSAFSVDSTLLATGDDNGEIRIWNVSNGELLHLCAPLSEEGAATHGGWVTDLCFSPDGKMLISAGGYIKWWNVVTGESSQTFYTNGTNLKKIHVSPDFKTYVTVDNLGILYILQTLE |  | capable of immunoprecipitating Bcl-xL | co-immunoprecipitated |  |
| Apaf-97: truncated Apaf-1, residues 1-97, entire CED-4 homology region deleted (protein, left off: small tags and cut ends, truncated Apaf-1, residues 1-97, entire CED-4 homology region deleted) MDAKARNCLLQHREALEKDIKTSYIMDHMISDGFLTISEEEKVRNEPTQQQRAAMLIKMILKKDNDSYVSFYNALLHEGYKDLAALLHDGIPVVSSS |  | not | not | inactivated |
| Apaf-530ΔCARD: truncated Apaf-1, residues 98-530, CARD domain deleted (protein, left off: small tags and cut ends, truncated Apaf-1, residues 98-530, CARD domain deleted) SVRTVLCEGGVPQRPVVFVTRKKLVNAIQQKLSKLKGEPGWVTIHGMAGCGKSVLAAEAVRDHSLLEGCFPGGVHWVSVGKQDKSGLLMKLQNLCTRLDQDESFSQRLPLNIEEAKDRLRILMLRKHPRSLLILDDVWDSWVLKAFDSQCQILLTTRDKSVTDSVMGPKYVVPVESSLGKEKGLEILSLFVNMKKADLPEQAHSIIKECKGSPLVVSLIGALLRDFPNRWEYYLKQLQNKQFKRIRKSSSYDYEALDEAMSISVEMLREDIKDYYTDLSILQKDVKVPTKVLCILWDMETEEVEDILQEFVNKSLLFCDRNGKSFRYYLHDLQVDFLTEKNCSQLQDLHKKIITQFQRYHQPHTLSPDQEDCMYWYNFLAYHMASAKMHKELCALMFSLDWIKAKTELVGPAHLIHEFVEYRHILDEKDCAVS |  | capable of immunoprecipitating Bcl-xL | co-immunoprecipitated | inactivated |
